Source: US20110177071A1 (PERSEID THERAPEUTICS, published 2011)
Positions count from the first letter of the chain named.

T1: human CD80-murine Ig fusion protein (human)
T1 construct: Bought (Ancell #510-820); also called hCD80-mIg; human CD80-murine IgG
T1 chain: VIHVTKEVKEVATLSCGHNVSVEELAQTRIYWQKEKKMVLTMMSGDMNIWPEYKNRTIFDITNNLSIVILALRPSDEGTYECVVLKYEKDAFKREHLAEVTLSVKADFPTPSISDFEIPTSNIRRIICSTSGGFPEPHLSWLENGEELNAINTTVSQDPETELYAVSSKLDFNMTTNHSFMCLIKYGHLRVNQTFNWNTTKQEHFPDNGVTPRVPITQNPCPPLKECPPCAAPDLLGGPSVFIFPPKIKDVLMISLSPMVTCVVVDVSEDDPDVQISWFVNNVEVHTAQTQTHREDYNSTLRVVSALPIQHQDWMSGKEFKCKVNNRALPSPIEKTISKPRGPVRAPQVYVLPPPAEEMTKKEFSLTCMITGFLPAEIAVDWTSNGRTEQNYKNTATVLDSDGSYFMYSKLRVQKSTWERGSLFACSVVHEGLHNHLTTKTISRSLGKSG

T2: human CD86-murine Ig fusion protein (human)
T2 construct: Bought (Ancell #509-820); also called hCD86-mIg
T2 chain: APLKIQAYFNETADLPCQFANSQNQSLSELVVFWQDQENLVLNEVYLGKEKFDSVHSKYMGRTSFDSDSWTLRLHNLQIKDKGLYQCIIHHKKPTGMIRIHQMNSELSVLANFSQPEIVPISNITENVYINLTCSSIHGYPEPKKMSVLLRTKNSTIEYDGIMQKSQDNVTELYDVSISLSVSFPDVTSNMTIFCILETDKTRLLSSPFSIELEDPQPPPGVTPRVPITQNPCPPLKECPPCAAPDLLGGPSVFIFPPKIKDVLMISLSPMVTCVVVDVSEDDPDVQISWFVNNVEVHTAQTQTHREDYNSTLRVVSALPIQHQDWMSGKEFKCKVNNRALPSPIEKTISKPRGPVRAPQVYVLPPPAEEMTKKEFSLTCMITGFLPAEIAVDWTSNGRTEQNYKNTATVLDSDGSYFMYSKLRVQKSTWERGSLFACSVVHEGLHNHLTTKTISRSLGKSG

T3: full-length human CD86 on HEK293 cells (human, UniProt P42081 24-329)
T3 sequence: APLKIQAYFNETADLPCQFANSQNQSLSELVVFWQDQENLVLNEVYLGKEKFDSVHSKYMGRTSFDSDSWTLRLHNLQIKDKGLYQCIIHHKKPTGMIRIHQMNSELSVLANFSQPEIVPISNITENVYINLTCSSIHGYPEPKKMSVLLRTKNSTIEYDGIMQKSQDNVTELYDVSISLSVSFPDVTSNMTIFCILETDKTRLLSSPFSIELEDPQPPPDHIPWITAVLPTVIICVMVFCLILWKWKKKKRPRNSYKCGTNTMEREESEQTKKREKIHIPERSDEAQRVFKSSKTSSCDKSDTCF

T4: monomeric hCD86 ECD (papain-digested hCD86-mIg) (human, UniProt P42081 24-243)
T4 construct: also called monomeric hCD86-mIg ligand; monomeric CD86 ECD
T4 chain: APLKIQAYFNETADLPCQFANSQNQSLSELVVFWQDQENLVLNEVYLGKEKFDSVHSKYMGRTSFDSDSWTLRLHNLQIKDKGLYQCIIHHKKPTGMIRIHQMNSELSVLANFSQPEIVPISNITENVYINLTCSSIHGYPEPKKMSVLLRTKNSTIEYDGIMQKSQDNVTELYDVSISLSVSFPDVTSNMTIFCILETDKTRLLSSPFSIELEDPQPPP

B1: D3-14-IgG2 (Fc fusion)
chain: MHVAQPAVVLASSRGIASFVCEYESPGKANEIRVTVLRQADSQVTEVCAMTYMKGDELTFLDDPSCTGTFSGNQVNLTIQGLRAADTGLYICKVELMYPPPYYLGIGNGTQIYVIDPEPCPDSDERKCCVECPPCPAPPVAGPSVFLFPPKPKDTLMISRTPEVTCVVVDVSHEDPEVQFNWYVDGVEVHNAKTKPREEQFNSTFRVVSVLTVVHQDWLNGKEYKCKVSNKGLPAPIEKTISKTKGQPREPQVYTLPPSREEMTKNQVSLTCLVKGFYPSDIAVEWESNGQPENNYKTTPPMLDSDGSFFLYSKLTVDKSRWQQGNVFSCSVMHEALHNHYTQKSLSLSPG
B2: D3-17-IgG2 (Fc fusion)
chain: B1 chain with A85M
B3: D3-4-IgG2 (Fc fusion)
chain: B1 chain with I106F
notes: also called D3-04-IgG2
B4: D3-70-IgG2 (Fc fusion)
chain: B1 chain with I32V, D56N, A85M, L104E
B5: D3-69-IgG2 (Fc fusion)
chain: B1 chain with A85M, L104E
B6: D3-54-IgG2 (Fc fusion)
chain: B1 chain with E24A, I32V, G55E, D56N, S65I, A85M
B7: D3-65-IgG2 (Fc fusion)
chain: B1 chain with E24A, I32V, D56N, A85M, L104E
B8: D3-71-IgG2 (Fc fusion)
chain: B1 chain with E24A, A85M, L104E
B9: D3-52-IgG2 (Fc fusion)
chain: B1 chain with E24A, D56N, S65I, A85M
B10: D3-75-IgG2 (Fc fusion)
chain: B1 chain with I32V, G55E, D56N, A85M
B11: D3-62-IgG2 (Fc fusion)
chain: B1 chain with E24A, G55E, A85M
B12: D3-56-IgG2 (Fc fusion)
chain: B1 chain with E24A, I32V, G55E, D56N, A85M
B13: D3-50-IgG2 (Fc fusion)
chain: B1 chain with E24A, I32V, S65I, A85M
B14: D3-73-IgG2 (Fc fusion)
chain: B1 chain with I32V, D56N, S65I, A85M, L104E
B15: D3-72-IgG2 (Fc fusion)
chain: B1 chain with D56N, A85M, L104E

Experiments:
[1] = molecular target: T1, human CD80-murine Ig fusion protein; assay: SPR Biacore, hCD80-mIg captured
Procedure: (§1) All Biacore™ analyses were performed on a Biacore™ 2000 system (GE Healthcare) at room temperature (RT, 25° C.). HBS-EP buffer (10 mM HEPES (pH 7.4), 150 mM NaCl, 3 mM EDTA, 0.005% surfactant P20) was used as the flow buffer for all experiments.
(§2) Rabbit anti-mouse IgG antibody (GE Healthcare, #BR-1005-14) was immobilized on CM5 sensor chips (GE Healthcare, #BR-1000-14) according to the manufacturer's protocol. Antibody was diluted to 30 μg/ml in immobilization buffer (10 mM sodium acetate, pH 5.0 (BR-1003-51)). At a flow rate of 5 μl/minute, sensor chip CM5 was activated with a 35 μl injection of a mixture of 1-Ethyl-3-[3-dimethylaminopropyl]carbodiimide hydrochloride (EDC) and N-hydroxysuccinimide (NHS) (made by mixing equal volumes of 11.5 mg/ml EDC and 75 mg/ml NHS) (GE Healthcare, #BR-1000-50), followed by a 35 μl injection of undiluted antibody. Un-reacted sites were quenched with 35 μl of 1M ethanolamine-HCL, pH 8.5 (GE Healthcare, #BR-1000-50). […] CTLA-4 ligands human CD80-murine Ig (hCD80-mIg) (Ancell, #510-820) or human CD86-murine Ig (hCD86-mIg) (Ancell, #509-820) were bound to antibody-coated sensor chips by injection of 10 μl or 16 μl, respectively, ligand solution (2 μg/ml protein in HBS-EP buffer [10 mM HEPES pH 7.4, 150 mM NaCl, 3 mM EDTA, 0.005% (v/v) surfactant P-20, GE Healthcare, #BR-1001-88]) at a flow rate of 10 μl/min.

[2] = molecular target: T2, human CD86-murine Ig fusion protein; assay: SPR Biacore, hCD86-mIg captured
Procedure: as §1, §2

[3] = molecular target: T3, full-length human CD86 on HEK293 cells; assay: cell-based or functional assay
[4] = molecular target: T4, monomeric hCD86 ECD (papain-digested …); assay: SPR Biacore, fusion protein captured, monomeric hCD86 ECD in flow
Procedure: Regeneration between cycles was performed by 3 min incubation with 10 mM glycine buffer (pH 1.7) at 30 μl/min.
For kinetic analysis, data from monomeric binding assays were selected as described above except that association data selection began and ended 5 s from the injection start and stop times, and dissociation data selection started 5 s after the injection stop time, and typically included 1-60 s of the dissociation period. Such data were also analyzed for steady state equilibrium affinities using the BIAevaluation software. Steady state binding levels for each concentration (Responseeq (“Req”) values) were averaged over 5-20 s range near the end of the sample injection using the BIAevaluation “General fit: average” function.

Row | Binder | Kd [1] | Binding Avidity (Relative to Orencia) [2] | Kd [2] | Mean IC50 (nM), CD4+ T cell proliferation [3] | Binding Affinity (Relative to LEA29Y-Ig) [4] | Kd [4] | Binding Avidity (Relative to Orencia) [1]
1 | B1 | 0.439 to 1.75 nM | > 40 fold | < 0.131 nM | 0.04 nM | > 5 fold | < 336 nM | 
2 | B2 | 0.439 to 1.75 nM | > 40 fold | < 0.131 nM | 0.03 nM | > 5 fold | < 336 nM | 
3 | B3 | 0.439 to 1.75 nM | > 40 fold | < 0.131 nM | 0.03 nM | > 5 fold | < 336 nM | 
4 | B4 | < 0.439 nM | > 40 fold | < 0.131 nM | 0.05 nM |  |  | > 2 fold
5 | B5 | < 0.439 nM | > 40 fold | < 0.131 nM | 0.03 nM |  |  | > 2 fold
6 | B6 | 0.439 to 1.75 nM | > 40 fold | < 0.131 nM | 0.04 nM |  |  | 
7 | B7 | < 0.439 nM | > 40 fold | < 0.131 nM | 0.06 nM |  |  | > 2 fold
8 | B8 | < 0.439 nM | > 40 fold | < 0.131 nM | 0.04 nM |  |  | > 2 fold
9 | B9 | 0.439 to 1.75 nM |  | 0.262 to 0.523 nM | 0.07 nM |  |  | 
10 | B10 | < 0.439 nM | > 40 fold | < 0.131 nM | 0.03 nM |  |  | > 2 fold
11 | B11 | < 0.439 nM | > 40 fold | < 0.131 nM | 0.04 nM |  |  | > 2 fold
12 | B12 | 0.439 to 1.75 nM | > 40 fold | < 0.131 nM | 0.04 nM |  |  | 
13 | B13 | 0.439 to 1.75 nM |  | 0.131 to 0.262 nM | 0.06 nM |  |  | 
14 | B14 | < 0.439 nM | > 40 fold | < 0.131 nM | 0.06 nM |  |  | > 2 fold
15 | B15 | < 0.439 nM | > 40 fold | < 0.131 nM | 0.03 nM |  |  | > 2 fold
